According to patent publication US11680267B2, “Co-regulatory sequences based on tetracycline and Cumate” (Shenzhen Eureka Biotechnology Co., Ltd., priority 2020, dated 2023):

Experiments:
[1] = tested on: 293T-rtTAadv-CymR cells; test: Luciferase assay, transient transfection, DOX and Cumate vs no inducer (Example 3), rtTAadv cells; format: cell-based
Procedure: (§1) 293T cells were seeded at 1.5E+06 cells per 60 mm culture dish, and cultured in DMEM (Sigam, D6429) complete medium supplemented with 10% FBS (ExCell, 11H116) at 37° C. and 5% CO 2. After 24 hours of culture, transfection was carried out according to the PEI method. During transfection, 500 μL of transfection reagent which contained 5.5 ug of total plasmid was added to each 60 mm culture dish, and the mass ratio of total plasmid to PEI MAX (Polysciences, 24765-1) was 1:4. The transfection was carried out according to the PEI method, wherein the amount of total plasmid was 5.5 μg. The transfection was performed with plasmids 19BF074:18BF019 at a molar ratio of 10:1 to obtain 293T-rtTAadv-CymR cells; and the transfection was performed with plasmids 19BF075:18BF019 at a molar ratio of 10:1 to obtain 293T-rtTA3G-CymR cells. The plasmid and PEI MAX were mixed uniformly, and then put into a culture dish after standing for 15 minutes. 3 hours after transfection, the medium was changed to a complete DMEM medium, and the transfection operation was completed. After 24 hours of transfection, the cells were digested with trypsin and all seeded in a 100 mm culture dish (Corning, 430167), and 200 μg/ml of hygromycin (Sangon Biotech A600230-0001) drug screening was performed for at least three passages. After the growth of cells under the pressure of drug screening was consistent with that of the original 293T cells, the following experiments were performed.
In Tet-On inducible expression system, the induced transcription activity and the leaky transcription activity were comprehensively affected by the TetO operator linking sequence of the TRE response element and the minimal promoter sequence, as well as different mutants of the transactivator rtTA. In addition, the transport and stability of messenger ribonucleic acid may be enhanced by linking a spliceable intron sequence downstream of the 3′ end of the response element and upstream of the 5′ end of the regulated nucleic acid fragment of interest, but the induced transcription activity and leaky transcription activity of response element of the inducible expression system may also be affected. Based on this, the optimal design scheme of complex response element was determined in this Example based on the induced expression level and the ratio of induced/leaky expression level of Luciferase gene under the combination of the following conditions: (1) Tet-On and Cumate complex response elements TREadvCuO and TRE3GCuO designed based on the TREadv and TRE3G response element sequences; (2) whether an intron was linked; (3) being regulated by the transactivator rtTAadv or rtTA3G. A total of 8 design schemes were compared in this Example: TREadv (18BF232), TREadvCuO (18BF233), TRE3G (18BF234), TRE3GCuO (18BF235), TREadv-BGI (18BF240, wherein the response element was TREadv, and a human β-globulin intron was linked between the 3′ end of the response element and the 5′ end of the Luciferase gene), TREadvCuO-BGI (18BF241, wherein the response element was TREadvCuO, and a human β-globulin intron was linked between the 3′ end of the response element and the 5′ end of the Luciferase gene), TRE3G-BGI (18BF236, wherein the response element was TRE3G, and a human β-globulin intron was linked between the 3′ end of the response element and the 5′ end of the Luciferase gene) and TRE3GCuO-BGI (18BF237, wherein the response element was TRE3GCuO, and a human β-globulin intron was linked between the 3′ end of the response element and the 5′ end of the Luciferase gene). The promoter CMV-BGI (18BF229, wherein the promoter was CMV, and a human β-globulin intron was linked between the 3′ end of the CMV promoter and the 5′ end of the Luciferase gene) was used as a positive control. […]

[2] = tested on: 293T-rtTA3G-CymR cells; test: Luciferase fluorescence intensity assay, transient transfection, both DOX and Cumate vs DOX alone (Example 2); format: cell-based
From the text: The experiment described in the present Example is to study and verify the effect of the position and copy number of the CuO operator in the Tet-On and Cumate complex response element on the induced expression level and non-induced leaky expression level of the complex response element, and to optimize and confirm the optimal position and copy number of the CuO operator. In the present Example, based on the 7×TetO sequence in the TRE3G response element and the minimal promoter sequence #1 (SEQ ID NO: 25), the response elements TRE3GCuO14 (10-317 bp in SEQ ID NO: 8), TRE3GCuO30 (SEQ ID NO: 28), TRE3GCuO50 (SEQ ID NO: 23) and TRE3GCuO100 (10-403 bp in SEQ ID NO: 10) were designed by linking a CuO operator sequence at 10 bp to 100 bp downstream of the TATA box (at 14 bp, 30 bp, 50 bp and 100 bp downstream of the TATA box, respectively), and a Luciferase reporter gene sequence was linked downstream of the 3′ end of the above response elements, to construct plasmids 18BF251, 18BF252, 18BF235 and 18BF253. Further, in order to study the effect of multiple copies of CuO operators, 2, 4 and 6 copies of CuO operator sequences were respectively inserted at 50 bp downstream of the TATA box, to design the response elements TRE3GCuO2x (10-411 bp in SEQ ID NO: 11), TRE3GCuO4x (10-527 bp in SEQ ID NO: 12) and TRE3GCuO6x (10-643 bp in SEQ ID NO: 13), and then a Luciferase reporter gene sequence was linked downstream of 3′ end of the above response elements to construct plasmids 18BF254, 18BF255 and 18BF256. In 293T-rtTA3G-CymR cells stably expressing rtTA3G and CymR genes, the above plasmids were transiently transfected, and the optimal position and number of CuO operator were validated by measuring the luciferase […] value of samples added with both DOX and Cumate inducers and that of the control added with the DOX inducer only. The specific experimental methods were as follows:
as §1
The 293T-rtTA3G-CymR cells were seeded in a 96-well plate (Corning 3916) at 2.5E+04 cells per well, and the medium was 100 microliters of DMEM complete medium. […]

[3] = 1 ug/ml DOX and 200 ug/ml Cumate

B1: TRE3GCuO: Tet-On (7xTetO of TRE3G) and Cumate complex response element, CuO 50 bp behind the TATA box (SEQ ID NO: 23) (nucleic acid)
DNA: TCCCTATCAGTGATAGAGAACGTATGAAGAGTTTACTCCCTATCAGTGATAGAGAACGTATGCAGACTTTACTCCCTATCAGTGATAGAGAACGTATAAGGAGTTTACTCCCTATCAGTGATAGAGAACGTATGACCAGTTTACTCCCTATCAGTGATAGAGAACGTATCTACAGTTTACTCCCTATCAGTGATAGAGAACGTATATCCAGTTTACTCCCTATCAGTGATAGAGAACGTATTAGGCGTGTACGGTGGGCGCCTATAAAAGCAGAGCTCGTTTAGTGAACCGTCAGATCGCCTGGAGCAATTCCACATACAAACAGACCAGATTGTCTGTTTGTT
modifications: TRE3GCuO50 response element sequence
[1]
  increase of induced/leaky expression ratio of TRE3GCuO over TREadvCuO: 16.4%
  induced expression level as % of the induced expression level of TRE3G: 50.4%
[1]; [3]
  induced expression level: 3.4E+06 RLU
[1]; DOX and Cumate
  induced expression level as % of that of the corresponding TRE3G or TREadv single regulatory response element: 50.4%
[1]; DOX and Cumate vs no inducer
  induced/leaky expression ratio: 1565 times
[2]; [3]
  induced expression level as % of the induced expression level of TRE3G response element: 66.0%
[2]; DOX and Cumate vs DOX only
  ratio of induced/leaky expression level based on Cumate inducible expression system, relative to that of TRE3G response element: 2.81 times
[2]; transient transfection, 1 ug/ml DOX and 200 ug/ml Cumate, 24 hours after transfection
  induced expression level: 4.53E+06 RLU
